From US20230159643A1 (H LUNDBECK A S, published 2023)

Assays:
[1] = target: T1, human wild type Sortilin on S18-HEK cells (human, UniProt Q99523 78-831); experiment: cell-based or functional assay
T1 sequence: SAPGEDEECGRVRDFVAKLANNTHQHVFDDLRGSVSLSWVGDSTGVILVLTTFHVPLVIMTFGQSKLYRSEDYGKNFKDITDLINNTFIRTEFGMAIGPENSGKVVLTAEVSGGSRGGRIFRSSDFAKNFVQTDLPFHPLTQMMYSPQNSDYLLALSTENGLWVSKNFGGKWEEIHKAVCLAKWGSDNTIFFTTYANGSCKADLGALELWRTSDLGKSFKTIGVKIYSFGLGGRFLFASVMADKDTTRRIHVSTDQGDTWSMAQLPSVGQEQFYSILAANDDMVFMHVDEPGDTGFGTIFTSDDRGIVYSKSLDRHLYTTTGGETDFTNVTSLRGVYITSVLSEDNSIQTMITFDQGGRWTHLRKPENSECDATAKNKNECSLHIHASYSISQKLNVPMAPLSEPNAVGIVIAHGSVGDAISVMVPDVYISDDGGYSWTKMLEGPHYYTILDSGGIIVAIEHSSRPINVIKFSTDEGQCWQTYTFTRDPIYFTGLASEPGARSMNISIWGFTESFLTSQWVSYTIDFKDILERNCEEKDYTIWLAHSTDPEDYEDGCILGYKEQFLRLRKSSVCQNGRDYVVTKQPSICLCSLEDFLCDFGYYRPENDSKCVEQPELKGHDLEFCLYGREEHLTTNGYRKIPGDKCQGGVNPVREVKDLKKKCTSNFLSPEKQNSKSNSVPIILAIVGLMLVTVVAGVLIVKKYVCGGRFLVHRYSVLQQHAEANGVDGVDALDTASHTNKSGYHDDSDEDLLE

[2] = target: T2, Sortilin SORTECDBAP_tetra (tetraodon); experiment: BLI Octet 384RED (Example 8), Sortilin construct in solution
T2 construct: Fully tetraodon Sortilin ECD with BAP tag; also called tetraodon Sortilin
T2 chain: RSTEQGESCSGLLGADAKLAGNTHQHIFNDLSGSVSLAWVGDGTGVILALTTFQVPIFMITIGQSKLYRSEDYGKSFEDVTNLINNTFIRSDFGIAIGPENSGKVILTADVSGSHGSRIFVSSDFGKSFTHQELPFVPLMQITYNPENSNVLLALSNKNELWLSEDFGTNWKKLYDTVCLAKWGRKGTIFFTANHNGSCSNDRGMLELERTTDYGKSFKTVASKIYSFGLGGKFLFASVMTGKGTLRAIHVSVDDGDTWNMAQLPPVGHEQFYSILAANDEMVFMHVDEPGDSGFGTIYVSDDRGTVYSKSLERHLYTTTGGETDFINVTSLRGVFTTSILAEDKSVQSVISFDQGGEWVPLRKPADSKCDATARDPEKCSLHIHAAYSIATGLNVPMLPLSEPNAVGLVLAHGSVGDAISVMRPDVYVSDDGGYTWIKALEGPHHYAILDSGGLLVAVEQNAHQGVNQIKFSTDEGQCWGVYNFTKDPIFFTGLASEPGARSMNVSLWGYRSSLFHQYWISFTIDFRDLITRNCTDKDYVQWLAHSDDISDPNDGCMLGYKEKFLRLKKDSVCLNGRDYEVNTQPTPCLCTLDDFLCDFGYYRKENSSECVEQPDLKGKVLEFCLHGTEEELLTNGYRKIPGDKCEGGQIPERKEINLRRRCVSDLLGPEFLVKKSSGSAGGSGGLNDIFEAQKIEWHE
Protocol: (§1) Binding kinetics of anti-Sortilin HuMab antibodies to Sortilin were determined using Octet 384RED (Fortebio, Menlo Park, USA). HuMab solutions of 2 μg/ml were made by dilution in sample diluent (ForteBio, art. No. 18-5028). Prot A sensors (ForteBio, art. no. 18-0004) were prewetted with kinetics buffer (1:10 sample diluent in PBS) for at least 600 seconds. Subsequently sensors were immobilized with HuMab solution for 600 seconds. A baseline response was obtained by dipping in kinetics buffer for 120 seconds. Association of SORTECD constructs was performed during a 1000 seconds incubation. This was followed by dissociation in kinetics buffer for 100 seconds. After dissociation, sensors were regenerated (10 mM Glycine pH 1.0) and neutralized (kinetics buffer) 3 times for 5 seconds. […] A molecular weight of 76.8 kDA was used for SORTECDHis. Data was fitted with ForteBio Analysis 6.4 software, using a global full fit.

[3] = target: T3, Sortilin SORTECDBAP_hB12390 (human/tetraodon chimera); experiment: as above
T3 construct: Shuffle construct
T3 chain: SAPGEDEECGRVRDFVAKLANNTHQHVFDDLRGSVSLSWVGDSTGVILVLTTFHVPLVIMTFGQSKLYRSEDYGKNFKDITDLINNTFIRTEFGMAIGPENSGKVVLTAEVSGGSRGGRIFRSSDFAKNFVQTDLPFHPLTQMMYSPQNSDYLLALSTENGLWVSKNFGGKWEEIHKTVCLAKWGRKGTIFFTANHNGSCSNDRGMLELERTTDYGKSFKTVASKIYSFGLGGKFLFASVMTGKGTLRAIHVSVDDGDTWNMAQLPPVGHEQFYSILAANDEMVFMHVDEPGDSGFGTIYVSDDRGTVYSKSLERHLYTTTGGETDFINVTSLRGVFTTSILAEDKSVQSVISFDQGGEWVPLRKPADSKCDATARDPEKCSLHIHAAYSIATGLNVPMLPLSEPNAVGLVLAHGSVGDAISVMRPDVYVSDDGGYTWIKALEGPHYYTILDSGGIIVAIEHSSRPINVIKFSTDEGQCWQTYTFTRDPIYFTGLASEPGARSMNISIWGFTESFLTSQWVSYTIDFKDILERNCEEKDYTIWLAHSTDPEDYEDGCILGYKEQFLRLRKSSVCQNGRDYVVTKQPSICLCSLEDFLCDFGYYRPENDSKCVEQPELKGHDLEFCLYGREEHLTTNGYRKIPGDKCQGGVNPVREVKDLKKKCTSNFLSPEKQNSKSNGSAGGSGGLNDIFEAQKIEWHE
Protocol: as §1

B1: 1320 (antibody, V domains shown)
VH: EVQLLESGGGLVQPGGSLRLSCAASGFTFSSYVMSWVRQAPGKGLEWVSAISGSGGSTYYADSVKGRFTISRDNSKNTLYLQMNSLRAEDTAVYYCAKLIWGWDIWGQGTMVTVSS
VL: EIVLTQSPATLSLSPGERATLSCRASQSVSSYLAWYQQRPGQAPRLLIYDASNRATGIPARFSGSGSGTDFTLSISSLEPEDFAVYYCQQRTNWSITFGQGTRLEIK
notes: also called IgG1-6003-1320; Antibody 1320
In the case of B1, the “extracellular PGRN in medium of Sortilin over-expressing HEK cells (ELISA), % of untreated control” value (shortened to “extracellular PGRN … % of untreated control”) [1] is reported as 114%.

B2: Antibody 5E1 (antibody, V domains shown)
VH: EVHLVESGGDLVNPGGSLKLSCEASGFIFSIYGMSWVRQTPDKRLEWVAMISSGGIYTQYPDSVKGRFTISRDNAKNTLYLQMSGLKSEDTGTYHCTRHDDSWFAYWGQGTLVTVSA
VL: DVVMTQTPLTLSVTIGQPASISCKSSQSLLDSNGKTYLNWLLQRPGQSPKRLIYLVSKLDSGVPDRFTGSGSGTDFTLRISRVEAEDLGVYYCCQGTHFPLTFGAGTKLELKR
notes: Mouse anti-human Sortilin monoclonal antibody from hybridoma (BALB/c), purified on protein G; Assigned to the D Region; also called 5E1F6; Ab 5E1
B2 was tested, and the “extracellular PGRN … % of untreated control” value [1] was 177%, the binding result [2] was “no binding (tested: 10 µg/ml construct)” and the EC50 [3] was 0.59 ng/mL.

B3: Antibody 1F2 (antibody, V domains shown)
VH: EVQLVESGGDLVKPGGSLKLSCAASGFTFSSYGMSWVRQTPDKRLEWVAIISSGGSYTHYPDSVKGRFTISRDNAKNTLYLQMSSLKSEDTAMYYCARLCGPLCSGYWGQGTSVTVSS
VL: QAVVTQESALTTSPGETVTLTCRSSTGAVTTSNYANWVQEKPDHLFTGLIGGTNNRAPGVPARFSGSLIGDKAALTITGAQTEDEAIYFCALWYSNHFWVFGGGTKLTVLG
notes: Mouse anti-human Sortilin monoclonal antibody from hybridoma (BALB/c), purified on protein G; Assigned to the D Region; also called 1F2F4; Ab 1F2
In the case of B3, the “extracellular PGRN … % of untreated control” value [1] is reported as 282%, the binding result [2] is reported as “no binding (tested: 10 µg/ml construct)” and the EC50 [3] is reported as 1.1 ng/mL.
